The target of one data set is T1, GST-OsbZIP23 (Oryza sativa, UniProt Q6Z312).
T1 sequence: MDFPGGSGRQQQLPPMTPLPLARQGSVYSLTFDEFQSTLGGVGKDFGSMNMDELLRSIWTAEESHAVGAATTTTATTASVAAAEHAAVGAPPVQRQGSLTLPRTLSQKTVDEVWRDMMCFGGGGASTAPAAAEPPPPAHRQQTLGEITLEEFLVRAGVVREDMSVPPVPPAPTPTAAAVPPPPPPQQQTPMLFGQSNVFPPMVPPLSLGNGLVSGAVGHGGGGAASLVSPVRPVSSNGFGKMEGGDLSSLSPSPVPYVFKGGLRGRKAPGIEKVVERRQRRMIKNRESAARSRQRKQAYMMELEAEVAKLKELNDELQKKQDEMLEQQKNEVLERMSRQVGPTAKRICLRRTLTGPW
The data set is described as follows: EMSA; EMSA kit (Viagene) binding buffer (composition not given), room temperature, 20 min; 6% native PAGE. Conditions: protein: recombinant; tags: GST (N-terminal, pGEX-4T-3); chain copies: 2; label: 5' biotin; blunt.

The target of the next data set is T2, GST-OsGF14f (Oryza sativa, UniProt Q06967 1-260).
T2 sequence: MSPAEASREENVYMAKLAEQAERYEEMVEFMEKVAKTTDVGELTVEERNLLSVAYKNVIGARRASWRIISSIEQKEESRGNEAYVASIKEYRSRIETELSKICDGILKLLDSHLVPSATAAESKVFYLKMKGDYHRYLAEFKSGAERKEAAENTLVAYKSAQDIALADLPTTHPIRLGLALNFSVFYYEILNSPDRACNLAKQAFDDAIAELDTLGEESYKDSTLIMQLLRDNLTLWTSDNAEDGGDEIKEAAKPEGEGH
Described as above. Conditions: protein: recombinant; tags: GST (N-terminal, pGEX-4T-3); chain copies: 2; label: 5' biotin; blunt.

B1: OsGF14f promoter probe (dsDNA)
DNA 1: TGGCGCCTTGCCACGTGCCCCCTCCCT
DNA 2: AGGGAGGGGGCACGTGGCAAGGCGCCA
B1: the binding result with GST-OsbZIP23 is “binds”.

B2: OsLEA3-2 promoter probe P1 (dsDNA)
DNA 1: ACCCGAGGCACACGTGTCCACCTCACCGGGGCACGTGTCGCGCCGT
DNA 2: ACGGCGCGACACGTGCCCCGGTGAGGTGGACACGTGTGCCTCGGGT
For B2, the binding result in the data set with GST-OsGF14f is given as “no binding”; with GST-OsbZIP23, “binds”.

The values above are taken from PMC10615203, “The 14-3-3 protein OsGF14f interacts with OsbZIP23 and enhances its activity to confer osmotic stress tolerance in rice”.
